Test results reported in patent publication US12636342B2, “TARS derived from Akkermansia muciniphila or fragment thereof, and use thereof” (KOREA RESEARCH INSTITUTE OF BIOSCIENCE AND BIOTECHNOLOGY, priority 2020, dated 2026).
“Also recorded” adds a separate entry of the source.

Legend:
mouse adipocyte 3T3-L1 = assay: Immunoblot of insulin signaling in 3T3-L1 with PMA or TNF-α induced inflammation; format: cell-based; conditions: 0.5 μM AmTARS
Experimental: Next, to determine whether the anti-inflammatory function of AmTARS affected the regulation of metabolic disease-associated intracellular signaling, immunoblot analysis was performed using the mouse adipocyte 3T3-L1.
Specifically, 3T3-L1 cells were cultured in DMEM containing 10% bovine calf serum (BCS) and antibiotics under conditions of 5% CO2 and 37° C. The cells were treated with 2 μM phorbol 12-myristate 13-acetate (PMA) or 20 ng/ml TNF-α to create an inflammatory environment in the cultured cells. The cells were treated with 100 nM insulin and 0.5 μM AmTARS for 24 h, and then changes in intracellular signaling were investigated.

[1] = test system: mouse bone marrow-derived macrophages (BMDMs); assay: ELISA of immune cytokine secretion in LPS-treated BMDMs (inflammatory environment); format: cell-based; conditions: LPS-induced inflammatory environment, 24 h
Experimental: (§1) To determine whether AmTARS affects immune cytokine secretion when cellular inflammation was induced, mouse bone marrow-derived macrophages BMDMs as mouse-derived immune cells and human macrophages THP1 as human-derived immune cells were cultured by way of the same method as in Example 2.
(§2) Specifically, the cultured BMDMs and THP1 were treated with lipopolysaccharide (LPS) to induce an inflammatory response and were simultaneously treated with AmTARS at 0.1 μM, 0.2 μM, and 0.5 μM for 24 h to obtain cell cultures. The obtained cell cultures were analyzed for immune cytokine secretion by way of the same method as in Example 2.
Next, BMDMs were treated with LPS to create an inflammatory environment by way of the same method as in Example 3, and then treated with each TARS (AmTARS, BfTARS, eTARS, and hTARS) to investigate the secretion of IL-10.
An inflammatory environment was created through LPS in BMDMs by way of the same method as in Example 3, and then the cells were treated with the four types of fragments, and the immune cytokine secretion was determined by ELISA.

[2] = biological target: T1, Toll-like receptor 2 (TLR2) (Homo sapiens, UniProt O60603); assay: Pull-down / in vitro interaction assay with TLR2; format: binding
T1 construct: 13; TLR2; 17; pIRES-FLAG; FLAG; Mammal; FLAG (C); expressed in transfected cells; host or cells: HEK 293T (human)
T1 sequence (O60603 21-784): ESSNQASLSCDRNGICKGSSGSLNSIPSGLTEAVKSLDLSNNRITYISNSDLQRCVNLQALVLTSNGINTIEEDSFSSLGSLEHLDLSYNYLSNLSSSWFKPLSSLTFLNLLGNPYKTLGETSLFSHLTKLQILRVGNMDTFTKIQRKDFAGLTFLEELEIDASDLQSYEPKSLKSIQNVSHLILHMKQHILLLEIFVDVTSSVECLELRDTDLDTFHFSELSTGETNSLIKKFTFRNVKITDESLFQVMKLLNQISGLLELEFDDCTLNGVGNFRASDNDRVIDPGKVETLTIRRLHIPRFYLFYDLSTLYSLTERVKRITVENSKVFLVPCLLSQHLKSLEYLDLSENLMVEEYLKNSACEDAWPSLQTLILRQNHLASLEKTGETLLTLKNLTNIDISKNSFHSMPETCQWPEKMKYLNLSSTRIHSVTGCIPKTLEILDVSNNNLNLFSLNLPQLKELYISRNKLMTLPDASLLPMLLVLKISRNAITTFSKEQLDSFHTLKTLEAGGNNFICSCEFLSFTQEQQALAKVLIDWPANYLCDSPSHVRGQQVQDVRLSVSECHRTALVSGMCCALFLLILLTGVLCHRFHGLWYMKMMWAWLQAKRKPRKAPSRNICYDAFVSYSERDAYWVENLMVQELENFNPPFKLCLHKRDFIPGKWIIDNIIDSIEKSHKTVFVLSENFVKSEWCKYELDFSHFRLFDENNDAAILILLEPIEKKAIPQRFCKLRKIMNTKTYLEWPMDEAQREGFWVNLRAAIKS
Experimental: Then, Strep-tagged AmTARS, AmTARS having deletions of two functional site (AmTARSΔ1Δ2), and FLAG-tagged TLR2 were transduced into human-derived HEK 293T cells through PEI, and thereafter, the cells were lysed using a lysis buffer containing 50 mM Tris-HCl (pH 7.5), 100 mM NaCl, 1% NP-40, 1 mM EDTA, 0.25% Na-deoxycholate, and a protease inhibitor cocktail. The cell lysates each were incubated with Strep Tactin beads and washed with a buffer containing 137 mM NaCl, 2.7 mM KCl, 10 mM Na2HPO4, 1.8 mM KH2PO4, and 1 mM EDTA, and proteins attached to the beads were eluted and analyzed by immunoblotting.
In addition, His-tagged AmTARS and FLAG-tagged protein were mixed at a ratio of 1:2, incubated with Ni-NTA beads, and then washed with a buffer containing 50 mM Tris-HCl (pH 8.0), 300 mM NaCl, 30 mM imidazole, and 1% NP-40, and the proteins attached to the beads were eluted and identified on SDS-PAGE gel.

[3] = test system: mouse bone marrow-derived macrophages (BMDMs); assay: ELISA of immune cytokine secretion in BMDMs under normal conditions; format: cell-based; conditions: normal (non-inflammatory) conditions, 24 h
Method in brief: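 Mouse BMDMs from femur and tibia were cultured in DMEM with 10% FBS. Cells were treated with AmTARS at 0.1, 0.2 or 0.5 μM for 24 h. Cell-free supernatants were assayed by ELISA for mouse IL-6, IL-10 and TNF-α.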

[4] = Aminoacylation reaction (malachite green phosphate assay); format: biochemical; conditions: L-threonine, ATP, 30 min, free Pi at 620 nm
Experimental: TARS is an […] involved in protein synthesis, and the domain and site involved in its function are well known. The constructed deletion mutants were confirmed to have deletions of parts irrelevant to the function, but the aminoacylation reaction experiment was conducted to determine whether the deletion mutants performed the intrinsic functions thereof appropriately.
Specifically, a 2× reaction solution (100 mM Tris-HCl (pH 7.5), 20 mM MgCl2, 200 mM NaCl, 200 mM KCl, 2 mM DTT, 500 μM ATP, and 5 mM L-threonine) was prepared, and 25 μL of a reaction solution, 20 μL of distilled water, and 5 μL of protein were added to make a final 50 μL volume, followed by incubation for 30 min. Thereafter, a reaction was conducted using a malachite green phosphate assay kit (Bioassay Systems) for 30 min, and the free monophosphate group (Pi) was measured at a wavelength of 620 nm.

[5] = test system: TLR2-KO mice with DSS-induced colitis; assay: DSS-induced colitis in TLR2-deficient mice; format: in vivo, mouse
Experimental: We assessed the role of TLR2 in AmTARS function in vivo. To verify whether the binding between AmTARS and TLR2 actually acted on the anti-inflammatory effect of AmTARS, an inflammatory bowel disease mouse model was prepared from TLR2-deficient mice by way of the same method as in Example 5 and investigated for anti-inflammatory efficacy after the administration of AmTARS. TLR2-KO mice were slightly more susceptible to DSS-induced colitis than WT mice, as reported previously (Rakoff-Nahoum et al., 2004).

human macrophages (THP1) = assay: ELISA of immune cytokine secretion in LPS-treated THP1 (inflammatory environment); format: cell-based; conditions: THP1, LPS-induced inflammation, 0.1, 0.2, 0.5 μM, 24 h
Experimental: as §1, §2

B1: Akkermansia muciniphila-derived threonyl-tRNA synthetase (TARS) (protein)
chain: MSEHKERKTLEERQQMSDLERLRHSCAHVLATAICRLWPDAQLAGGPAVDNGFYYDVELDHRISTEDFERIEEEMKKVVKENQVFQKEVISRADAMKMAESGELGALGPRSEPSRFKIDLLNDIPEDEEISLYRNGDFTDLCAGPHVGRTGNCKAFKIMSVASAFYKGDKNRPMLQRIYGTCFPNRTQLDEHLERLEEARRRDHRKLGRELGLFCIDESVGQGLILWKPKGALIRRSLQDFITEELDKLGYSQVYTPNIGKLDLYRTSGHFPYYQESQYAPIPERDAMEKLSQEGASCAELFNGLATGTIEGYMLKPMNCPHHIKIYANDAHSYRDLPVRLAEFGTVYRWEQSGELGGMTRVRGFTQDDAHIFCTPDQLAGEIRQCLGIVKTIFGTLGMTDYRVRLSMRDPESDKYVGSPENWDKAEQALREAAEWLGADYSEEAGEAAFYGPKIDFIVRDAIGREWQLGTVQVDYNLPERFDLHYTGADNKPHRPVMVHRAPFGSMERFTGLLIEHFEGKFPTWLSPEQVRVLPISDKVTDVAAAHRTALAARGVRVTVDETPDKIGAKIRNARLDRVPYMLVLGQREAEDGTVSVRHRDKGDLGAMPFEQFADLVAREIAERHISPVI
modifications: Akkermansia muciniphila TARS
Mouse adipocyte 3T3-L1; 3T3-L1, 100 nM insulin and 2 μM PMA, 24 h
  phosphorylation of protein kinase B (AKT): again increased the phosphorylation
Mouse adipocyte 3T3-L1; 3T3-L1, TNF-α, insulin
  S6 kinase (S6K): phosphorylated and activated
  glycogen synthase kinase (GSK)-3β: phosphorylated and inhibited
  insulin receptor substrate (IRS): no significant change
Mouse adipocyte 3T3-L1; 3T3-L1, insulin resistance induced by 20 ng/ml TNF-α, 100 nM insulin
  phosphorylation of AKT: increased the phosphorylation
[1]
  secretion of IL-6: suppressed; also recorded: reduced in a dose-dependent manner
  secretion of IL-10: increased IL-10 levels; also recorded: increased in a dose-dependent manner; also recorded: increased in a protein concentration-dependent manner
  secretion of TNF-α: suppressed; also recorded: reduced in a dose-dependent manner
[2]; HEK 293T cells, Strep-AmTARS and TLR2-FLAG
  interaction with TLR2 among candidates tested (pull-down): interacted only with TLR2
[2]; purified TLR2-FLAG and His-tagged proteins, Ni-NTA
  direct interaction with TLR2 (in vitro pull-down): interacts directly with TLR2 via the U2-containing catalytic domain (CD)
[3]
  secretion/production of IL-6: not secreted; also recorded: no effect
  secretion/production of IL-10: increased in a dose-dependent manner; also recorded: significant increase; also recorded: induced production; also recorded: specific to AmTARS
  secretion/production of TNF-α: not secreted; also recorded: no effect
[4]
  aminoacylation reaction / enzymatic activity: an aminoacylation reaction was shown
[5]; TLR2-KO mice
  colitis-induced body weight loss: did not improve
  disease activity score: did not improve
[5]; TLR2-deficient mice
  B cells in the colon: did not show efficacy of increasing B cells in the colon
  amount of IgA: a significant change in the amount of IgA could not be observed
[5]; colitis TLR2-KO mice
  increase in IL-10-secreting macrophage numbers: did not induce
  reduction in pro-inflammatory monocyte numbers: did not induce
Human macrophages (THP1)
  secretion of IL-6: reduced in a dose-dependent manner
  secretion of IL-10: increased in a dose-dependent manner
  secretion of TNF-α: reduced in a dose-dependent manner
